Experimental findings from patent publication US20250051473A1 (IGM BIOSCIENCES, published 2025) are described below.

The target of assay [1] is T1, recombinant human CD38 extracellular domain protein (ACROBiosystems, Cat #CD8-H5224) (human, UniProt P28907 43-300).
T1 construct: Bought protein; also called recombinant human CD38 protein
Kind of assay: BLI (Octet 384), IgG on anti-human IgG Fc biosensors, soluble human CD38 as analyte, 1:1 global fit. (In general: In BLI a coated tip is dipped into the sample, and binding shifts an interference pattern.)
Experimental: Samples and buffer were applied in 384-well plates. After an initial baseline calibration for 60 seconds, sensors were loaded with 20 nM of IgG antibodies. The biosensors were dipped into buffer to reach a baseline value and incubated for 600 seconds with 2-fold serial diluted human CD38 protein starting at 100 nM for association, followed by 900 seconds in buffer for dissociation.

For assay [2], the target named is T2, recombinant cynomolgus monkey CD38 extracellular domain protein (ACROBiosystems) (cynomolgus monkey, UniProt Q5VAN0 44-301).
T2 construct: Bought extracellular domain protein; also called cyno CD38; recombinant cyno CD38
Kind of assay: ELISA screen of hybridoma supernatants on recombinant CD38. (In general: ELISA stands for enzyme-linked immunosorbent assay.)

In assay [3] the target is T1, recombinant human CD38 extracellular …. The description is as above.
The target is the same in assay [4]. Kind of assay: ELISA, plate coated with recombinant human CD38 extracellular domain, HRP anti-human kappa detection, chemiluminescence (RLU).
Experimental: (§1) Plates were then washed five times with 0.05% phosphate buffered saline (PBS)-polysorbate sold under the trademark TWEEN® (PBS-TWEEN®) and blocked with 2% bovine serum albumin (BSA)-PBS. After blocking, 100 μL of serial dilutions of chimeric CD38×CD3 IgM antibodies, standards, and controls were added to each well of the plates and incubated at room temperature for 2 hours. […] PRISM® using a 4-parameter logistic model.
The target of assay [5] is T2, recombinant cynomolgus monkey CD38 …. Kind of assay: ELISA, plate coated with recombinant cynomolgus CD38 extracellular domain, HRP anti-human kappa detection, chemiluminescence (RLU).
Experimental: as §1
For assay [6], the target named is cell surface human CD38 on NCI-H929 myeloma cells (human, UniProt P28907 1-300). In words: flow cytometry on NCI-H929 cells, AF488 anti-human kappa secondary antibody, median FL-1.
Experimental: In addition, binding to cell surface human CD38 was assessed using the myeloma cell line, NCI-H929 (H929), and flow cytometry analysis. In brief, H929 cells were stained with serial dilutions of chimeric CD38×CD3 IgM antibodies for 30 minutes at 4° C. […] Cells were then washed twice, resuspended in fluorescence-activated cell sorting (FACS) stain buffer, and measured using flow cytometry.

As usually defined, the Kd is the equilibrium constant for the complex coming apart. By koff is commonly meant a measure of how fast the partners let go of each other. As usually defined, the kon is a measure of how fast the partners come together.

B1: IgG OKT10-2 (antibody, V domains shown)
VH: EVQLLESGGGLVQPGGSLRLSCAASGFDFSRSWMNWVRQAPGKGLEWVSEINPDSSTINYATSLKDRFTISRDNSKNTLYLQMNSLRAEDTAVYYCARYGNWFPYWGQGTLVTVSS
VL: DIQMTQSPSSLSASVGDRVTITCKASQNVDTNVAWYQQKPGKAPKALIYSASYRYSGVPSRFSGSGSGTDFTLTISSLQPEDFATYYCQQYDSYPLTFGQGTKVEIK
notes: also called humanized OKT10 IgG (OKT10VH2 / OKT10VL2)
In the case of B1, in assay [1], the Kd is 28.3 nM, the dissociation rate constant (koff) amounted to 0.0113 s⁻¹ and the association rate constant (kon) stood at 400000 M⁻¹ s⁻¹.

B2: Clone G (antibody, V domains shown)
VH: QVQLQQPGPELVKPVASVKISCKTSDYAFSSSWMNWVKQRPGKGLEWIGWIYPGDGDTNYNGKFKGKATLTADKSSSTAYMQLSSLTSEDSAVYFCARGRWGMDNWGQGTSVTVSS
VL: DIVMTQSHKFMSTSVGDRVSITCKASQNVVTAVAWYQQKPGQSPKLLIYWASSRHTGVPDRFTGSGSGTDFTLTISNVQSEDLADYFCQQYSNYPFTFGSGTKLEIK
notes: Murine hybridoma antibody tested as supernatant; also called anti-CD38 murine hybridoma clone G
As for B2, the binding result in assay [2] and in assay [3] was “binds” throughout.

B3: Clone H (antibody, V domains shown)
VH: QVPLHQSGPELIKPGASLKISCKASDSAFNNSWMNWVRQRPGKGLEWIGWIYPGDDDTKYNGKFMGKATLTADKSSGTAYMQLSSLTSEDSAVYFCARGRWGMDYWGQGTSVTVSS
VL: DIVMTQFHNFMSTSVGDRVNINCKASQNVVTAVAWYQQKPGQSPKLLIYWASTRHTGVPDRFTGSGSGTDFTLTISNVQSEDLADYFCQQYSNYPFTFGSGTKLEIK
notes: Murine hybridoma antibody tested as supernatant; also called anti-CD38 murine hybridoma clone H
As to B3, the binding result in assay [2] and in assay [3] was “binds” each time.

B4: Clone I (antibody, V domains shown)
VH: QVPLQQSGPELVKPGASVKISCKASDSAFNNSWTIWVRQRPGKGLEWIGWIYPGDDDTKYNGKFMGKATLTADKSSGTAYMQLSSLTSEDSAVYFCARGRWGMDYWGQGTSVTVSS
VL: DIVMTQSRKFMSTSVGDRVSISCKASQNVVTAVAWYQQKPGQSPKLLIYWASTRHTGVPDRFTGSGSGTDFTLTISNVQSEDLADYFCQQYSNYPFTFGSGTELEIK
notes: Murine hybridoma antibody tested as supernatant; also called anti-CD38 murine hybridoma clone I
Take B4: the binding result in assay [2] and in assay [3] was “binds” throughout.

B5: IgG OKT10-1 (antibody, V domains shown)
VH: EVKLQESGGGLVQPGGSLKLSCAASGFDFSRSWMNWVRQAPGKGLEWIGEINPDSSTINYTTSLKDKFIISRDNAKNTLYLQMTKVRSEDTALYYCARYGNWFPYWGQGTLVTVSA
VL: DIVMTQSPKIMPTSVGDRVSVTCKASQNVDTNVAWYQQKPGQSPKALIYSASYRYSGVPDRFTGSGSGTDFTLTITNVQSEDLAEYFCQQYDSYPLTFGAGTKLDLK
notes: also called parental OKT10 in IgG format
B5: in assay [1], the dissociation constant (Kd) is 5.97 nM, the koff is 0.00206 s⁻¹ and the on-rate constant (kon) amounted to 344000 M⁻¹ s⁻¹.

B6: Clone D (antibody, V domains shown)
VH: QIQLVQSGPELKKPGETVKISCKASGYTFTNYGMNWVKQAPGEDLKWMGWLNTNTGEPTYAEEFKGRFAFSLETSASTAYLQINNLRNEDTATYFCARWYYGSSDNSYAMDYWGQGTSVTVSS
VL: ETIVTQFPASLSMAIGEKVTIRCITSTDIDDDMNWYQQRPGEPPKLLISEGNTLRPGVPSRFSSSGYGTDFVFTFENMLSEDVADYYCLQSDSLPYTVGGGTRLEIK
notes: Murine hybridoma antibody tested as supernatant; also called anti-CD38 murine hybridoma clone D
Turning to B6, the binding result in assay [2] and in assay [3] was “binds” throughout.

B7: IgG E-2 (antibody, V domains shown)
VH: QVQLVQSGAEVKKPGSSVKVSCKASGYTFTNHWIEWVRQAPGQGLEWMGDIFPGGGYTDYNEKFKGRVTITADESTSTAYMELSSLRSEDTAVYYCARGRDLAMDYWGQGTLVTVSS
VL: DIQMTQSPSSLSASVGDRVTITCHASQNINVWLGWYQQKPGKAPKLLIYKASNLHTGVPSRFSGSGSGTDFTLTISSLQPEDFATYYCQQGQSYPYTFGQGTKVEIK
notes: also called humanized Clone E IgG (EVH1 / EVL1)
Consider B7, for which, in assay [1], the equilibrium dissociation constant (Kd) was found to be 7.62 nM, the koff was found to be 0.00378 s⁻¹ and the kon stood at 496000 M⁻¹ s⁻¹.

B8: IgM C-1 (bispecific antibody)
VH: EVQLQQSGTVLARPGASVKMSCKASGYTFTRYWMHWVKQRPGQDLEWIGGFYPGNSDTRYNQKFKDKAKLTAVTSTSTAYMELSSLTNEDSAVYYCTRGDRHDEGFAYWGQGTLVTVSA
VL: DIQMTQSPASLSASVGETVTITCRASGNIHNYLAWYQQKQGKSPQLLVYNAKTLPDGVPSRFSGSGSGTQYSLKINSLQPEDFGTYYCQNIWTNYTFGGGTKLEIK
chain: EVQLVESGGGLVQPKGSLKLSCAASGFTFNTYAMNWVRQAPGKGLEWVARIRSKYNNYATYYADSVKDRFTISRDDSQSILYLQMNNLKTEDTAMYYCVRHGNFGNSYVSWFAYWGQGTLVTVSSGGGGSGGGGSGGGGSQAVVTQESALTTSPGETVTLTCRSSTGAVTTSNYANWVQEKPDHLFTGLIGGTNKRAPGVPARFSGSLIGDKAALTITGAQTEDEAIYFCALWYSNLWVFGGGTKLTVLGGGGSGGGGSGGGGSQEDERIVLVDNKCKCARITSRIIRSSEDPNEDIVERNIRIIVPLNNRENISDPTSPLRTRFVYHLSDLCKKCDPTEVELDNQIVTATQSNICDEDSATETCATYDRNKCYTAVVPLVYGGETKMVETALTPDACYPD
notes: Constant regions not specified; also called chimeric CD38 × CD3 IgM antibody of Clone C
As for B8, the binding result in assay [4], in assay [5] and in assay [6] was “binds” throughout.

B9: Clone C (antibody, V domains shown)
VH: EVQLQQSGTVLARPGASVKMSCKASGYTFTRYWMHWVKQRPGQDLEWIGGFYPGNSDTRYNQKFKDKAKLTAVTSTSTAYMELSSLTNEDSAVYYCTRGDRHDEGFAYWGQGTLVTVSA
VL: DIQMTQSPASLSASVGETVTITCRASGNIHNYLAWYQQKQGKSPQLLVYNAKTLPDGVPSRFSGSGSGTQYSLKINSLQPEDFGTYYCQNIWTNYTFGGGTKLEIK
notes: Murine hybridoma antibody tested as supernatant; also called anti-CD38 murine hybridoma clone C
As to B9, the binding result in assay [2] and in assay [3] was “binds” throughout.

B10: Clone F (antibody, V domains shown)
VH: EVQLQQSGAEFVRPGASVKLSCTASGFNIKDSLMHWVKQRPEQGLEWIGWIDPEDDKTKYAPKFQDEATLTADTSSNTAYLHLSSLTSEDTAIYYCARRFLRGFAYWGQGTLVTVSA
VL: DIVMTQSPSSLSVSAGEKVTMSCKSSQSLLNSGNQKNYLAWYQQKPGQPPKLLIYGASTRESGVPDRFTGSGSGTDFTLTISSVQAEDLAVYYCQNDHSYPYTFGGGTKLEIK
notes: Murine hybridoma antibody tested as supernatant; also called anti-CD38 murine hybridoma clone F
On to B10, for which the binding result in assay [2] and in assay [3] was “binds” each time.

B11: IgM B-1 (bispecific antibody)
VH: QAYLQQSGAEVVRSGASVKMSCKAAGYTFTSYNMHWVKQTPGQGLEWIGYIYPGNGGTNYNQKFKGKATLTADTSSTTAYMQISSLTSEDSAVYFCARGASMITTGAWFAYWGQGTLVTVSA
VL: NIVLTQSPASLAVSLGQRATISCRASESLDTYGNSFMYWYQQKPGQPPKLLIYLASSLESGVPARFSGSGSRTDFTLTIDPVEADDAATYYCHQNHEDPWTFGGGTKLEIK
chain: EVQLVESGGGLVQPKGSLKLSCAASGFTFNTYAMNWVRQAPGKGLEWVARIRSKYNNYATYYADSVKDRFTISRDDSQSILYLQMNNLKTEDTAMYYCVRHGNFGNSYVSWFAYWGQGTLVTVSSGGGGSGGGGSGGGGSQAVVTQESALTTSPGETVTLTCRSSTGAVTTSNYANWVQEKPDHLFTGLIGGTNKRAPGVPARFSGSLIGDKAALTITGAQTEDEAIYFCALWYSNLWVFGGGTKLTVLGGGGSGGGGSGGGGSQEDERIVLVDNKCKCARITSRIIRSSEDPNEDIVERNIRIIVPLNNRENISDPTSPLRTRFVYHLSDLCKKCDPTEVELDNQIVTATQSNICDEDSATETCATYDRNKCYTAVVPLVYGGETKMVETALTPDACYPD
notes: Constant regions not specified; also called chimeric CD38 × CD3 IgM antibody of Clone B
As for B11, the binding result in assay [4], in assay [5] and in assay [6] was “binds” throughout.

B12: IgG B-1 (antibody, V domains shown)
VH: QAYLQQSGAEVVRSGASVKMSCKAAGYTFTSYNMHWVKQTPGQGLEWIGYIYPGNGGTNYNQKFKGKATLTADTSSTTAYMQISSLTSEDSAVYFCARGASMITTGAWFAYWGQGTLVTVSA
VL: NIVLTQSPASLAVSLGQRATISCRASESLDTYGNSFMYWYQQKPGQPPKLLIYLASSLESGVPARFSGSGSRTDFTLTIDPVEADDAATYYCHQNHEDPWTFGGGTKLEIK
notes: also called chimeric IgG of Clone B
For the molecule B12, in assay [1], the equilibrium dissociation constant (Kd) came to 0.526 nM, the koff worked out at 7.32e-05 s⁻¹ and the association rate constant (kon) was 139000 M⁻¹ s⁻¹.

B13: Clone B (antibody, V domains shown)
VH: QAYLQQSGAEVVRSGASVKMSCKAAGYTFTSYNMHWVKQTPGQGLEWIGYIYPGNGGTNYNQKFKGKATLTADTSSTTAYMQISSLTSEDSAVYFCARGASMITTGAWFAYWGQGTLVTVSA
VL: NIVLTQSPASLAVSLGQRATISCRASESLDTYGNSFMYWYQQKPGQPPKLLIYLASSLESGVPARFSGSGSRTDFTLTIDPVEADDAATYYCHQNHEDPWTFGGGTKLEIK
notes: Murine hybridoma antibody tested as supernatant; also called anti-CD38 murine hybridoma clone B
Turning to B13, the binding result in assay [2] is reported as “binds”.

B14: Clone A (antibody, V domains shown)
VH: QVQLQQSGAELVKPGASVKISCKASGYTFSNYWIEWVKQRPGLGLEWIGDILPGSGTTNYNEKFKGKATFTADTSSNTAYMQLSSLTSEDSAVYYCAGYGNYLWFTYWGQGTLVTVSA
VL: DIQMNQSPSSLSASLGDTITITCHASQNINVWLSWYQQKPGNIPKLLIYKASNLHTGVPSRFSGSGSGTGFTLTISSLQPEDIATYYCQQGQSYPYTFGGGTKLEIK
notes: Murine hybridoma antibody tested as supernatant; also called anti-CD38 murine hybridoma clone A
As to B14, the binding result in assay [2] and in assay [3] was “binds” each time.

B15: IgG E-1 (antibody, V domains shown)
VH: QVQLQQSGAELVRPGTSVKMSCKAAGYTFTNHWIEWVKQRPGHGLEWIGDIFPGGGYTDYNEKFKGKATLTADTSSSTAYMQLSSLTSEDSAIYYCARGRDLAMDYWGQGTSVTVSS
VL: DIQMNQSPSSLSASLGDTITITCHASQNINVWLGWYQQKPGNIPKLLIYKASNLHTGVPSRFSGSGSGTGFTLTISSLQPEDIATYYCQQGQSYPYTFGGGTKLEIK
notes: also called chimeric IgG of Clone E
In the case of B15, in assay [1], the dissociation constant (Kd) came out at 1.99 nM, the dissociation rate constant (koff) is 0.00117 s⁻¹ and the on-rate (kon) came to 587000 M⁻¹ s⁻¹.

B16: Clone E (antibody, V domains shown)
VH: QVQLQQSGAELVRPGTSVKMSCKAAGYTFTNHWIEWVKQRPGHGLEWIGDIFPGGGYTDYNEKFKGKATLTADTSSSTAYMQLSSLTSEDSAIYYCARGRDLAMDYWGQGTSVTVSS
VL: DIQMNQSPSSLSASLGDTITITCHASQNINVWLGWYQQKPGNIPKLLIYKASNLHTGVPSRFSGSGSGTGFTLTISSLQPEDIATYYCQQGQSYPYTFGGGTKLEIK
notes: Murine hybridoma antibody tested as supernatant; also called anti-CD38 murine hybridoma clone E
Consider B16, for which the binding result in assay [2] is listed as “binds”.

B17: IgG B-2 (antibody, V domains shown)
VH: QVQLVQSGAEVKKPGSSVKVSCKASGYTFTSYNMHWVRQAPGQGLEWMGYIYPGNGGTNYNQKFKGRVTITADESTSTAYMELSSLRSEDTAVYYCARGASMITTGAWFAYWGQGTLVTVSS
VL: DIQMTQSPSSVSASVGDRVTITCRASESLDTYGNSFMYWYQQKPGKAPKLLIYLASSLESGVPSRFSGSGSGTDFTLTISSLQPEDFATYYCHQNHEDPWTFGQGTKVEIK
notes: also called humanized Clone B IgG (BVH1 / BVL1)
For B17, in assay [1], the equilibrium dissociation constant (Kd) was found to be 0.8 nM, the koff worked out at 0.000225 s⁻¹ and the on-rate (kon) came out at 281000 M⁻¹ s⁻¹.
